Entries after “also recorded” stand apart in the source; their conditions may differ.
B1: CMV minimal promoter: CMV minimal promoter, SEQ ID NO: 28; named as control in FIG. 13 legend (nucleic acid)
DNA: AGGTCTATATAAGCAGAGCTCGTTTAGTGAACCGTCAGATCGCCTAGATACGCCATCCACGCTGTTTTGACCTCCATAGAAGATCGCCACC
B2: RTV-017: synthetic forskolin-inducible promoter, SEQ ID NO: 43; 8× AP1(1) TFBS and CMV-MP minimal promoter (nucleic acid)
DNA: TGAGTCAGATGATGCGTAGCTAGTAGTTGAGTCAGATGATGCGTAGCTAGTAGTTGAGTCAGATGATGCGTAGCTAGTAGTTGAGTCAGATGATGCGTAGCTAGTAGTTGAGTCAGATGATGCGTAGCTAGTAGTTGAGTCAGATGATGCGTAGCTAGTAGTTGAGTCAGATGATGCGTAGCTAGTAGTTGAGTCAGTAGTCGTATGCTGATGCGCAGTTAGCGTAGCTGAGGTACCGTCGACGATATCGGATCCAGGTCTATATAAGCAGAGCTCGTTTAGTGAACCGTCAGATCGCCTAGATACGCCATCCACGCTGTTTTGACCTCCATAGAAGATCGCCACC
modifications: Synp-RTV-017
notes: 8× AP1(1) TFBS and CMV-MP minimal promoter

Columns and labels:
[1] = tested on: HEK293-F; experiment: Luciferase time course under hypoxia, transiently transfected HEK293-F; assay type: cell-based, human; details: 5% oxygen, 3, 5 and 24 hrs
Procedure: The constructs were initially used to drive luciferase expression in HEK293-F and HEK293-T in hypoxia.
40 ml of cells were grown in a 250 ml vented Erlenmeyer flask (Sigma-Aldrich CLS431144) at 37° C., 20% O2, 8% CO2 with agitation at 100 rpm. Cells were seeded as described in the manufacturer's instructions (300,000 cells/ml). HEK293-F were obtained from Thermofisher, R79007.
One day before transfection, the cells were counted using a haemocytometer and split to 500,000 cells/ml.
On the day of transfection, the cells are seeded to 1,000,000 cells/ml in 500 μl of appropriate medium (Freestyle 293 expression medium, 12338002) in a 24 well plate. […] of DNA per well was then added to 10 μl of OptiMem medium (Thermofisher; 11058021) and incubated for 5 minutes at room temperature.
Concurrently, 0.625 μl of Max reagent (Thermofisher, 16447100) was made up to 10 μl by addition of OptiMem and incubated for 5 minutes at room temperature. After this incubation, both mixes were added to the same tube and incubated at room temperature for 25-30 minutes. […]
After transfection the cells were incubated for 24 hrs in normoxia conditions (20% oxygen) before being switched to a gas mix of 5% oxygen, 10% carbon dioxide and 85% nitrogen (hypoxia). […] Induction of the promoters was assessed by using luciferase activity after 3, 5 and 24 hrs in hypoxia.
Luciferase activity was measured using LARII (Dual Luciferase Reporter 1000 assay system, Promega, E1980).
Media was removed from the cells at the respective time point (0, 3, 5, 24 hrs after induction). […] 10 μl of supernatant was pipetted into white 96-well plate and luminescence measured by addition of 50 μl of LARII substrate.
β-galactosidase activity was measured as per manufacturer's instructions (Mammalian βGalactosidase Assay Kit, 75707/75710, Thermo Scientific) using 25 μl of lysate. […] The mixture was incubated at 37° C. for 30 min and absorbance measured at 405 nm.
Luciferase readouts were normalised to β-galactosidase to produce normalised relative luminometer units (RLUs).

[2] = tested on: Huh7 human liver cell line; experiment: Luciferase expression from forskolin-inducible promoters, transient transfection of PM-RQ plasmid in Huh7; assay type: cell-based; design: luciferase activity following induction / fold induction of promoter (luciferase activity): dose or concentration left out as unconfirmed
Procedure: Luciferase readouts were normalised to β-galactosidase to produce normalised relative luminometer units (RLUs). β-galactosidase containing pcDNA6 plasmid was used as internal control for transfection efficiency (Thermofisher, V22020). β-galactosidase activity was measured as per manufacturer's instructions (Mammalian βGalactosidase Assay Kit, 75707/75710, Thermo Scientific) using 25 μl of lysate. 25 μl of lysate was transferred into a microplate well and mixed with 25 μl of β-galactosidase Assay Reagent, equilibrated to room temperature. The mixture was incubated at 37° C. for 30 min and absorbance measured at 405 nm.
The forskolin-inducible promoters were initially used to drive expression of luciferase in the Huh7 human liver cell line and the C2C12 […]. The promoter constructs were used to drive expression of luciferase in the PM-RQ plasmid. The tested promoters were synthesised directly upstream of the ATG of PM-RQ plasmid.
• Huh7 cells which are a human liver cell line • DPBS: without CaCl2, without MgCl2 (Gibco, 14190-094) • DMEM (Sigma, D6546) • FBS (Sigma, F9665) • Pen-Strep (Sigma, P4333) • Promega Fugene-HD (E2311) • Forskolin (Sigma, F6886) • NKH477 (Sigma, N3290) • LARII (Dual Luciferase Reporter 1000 assay system, Promega, E1980) • 48 well plates flat bottom (353230, Corning) • Trypsin-EDTA (25200-056, Gibco) • T25 & T75 flask (353108, 353136, Corning) • 15 ml Falcon tubes (430791, Corning) • Stripettes 5 ml, 10 ml and 25 ml (4101,4051,4251, Corning)
Cells were seeded onto a 48 well plate at a density of 25,000 cells/300 μl
• On the day of transfection, DNA to be transfected was diluted to a 100 ng/μl stock solution. DNA to be transfected was the RTV-017, RTV-019 or CMV-IE promoter driving luciferase in the PM-RQ plasmid. • Per 48 well transfection, 45 ng of DNA was mixed with 4.1 μl of Optimem medium. • 0.5 μl of […] was mixed with 4 μl of Optimem medium. • These 2 solutions were mixed and incubated at room temperature for 15 minutes. • The final solution was then added to the well drop wise. • 3 hrs after transfection the inducer was added to the appropriate wells at the indicated concentration. Inducer was forskolin at […].
• 24 hrs after induction, the luciferase activity was measured as described below.
• Luciferase activity was measured using LARII (Dual Luciferase Reporter 1000 assay system, Promega, E1980) • 24 hours after induction, the media was removed from the cells • The cells were washed once in 300 μl of DPBS. • Cells were lysed using 100 μl of passive lysis buffer and incubated with rocking for 15 minutes. • The cell debris was pelleted by centrifugation of the plate at max speed in a benchtop centrifuge for 1 min • For luciferase, 10 μl sample was transferred into white 96-well plate and luminescence measured by injection of 50 μl of LARII substrate
RTV-017 and RTV-019 were transiently transfected into the human liver cell line Huh7 (FIG. 2). RTV-019 was transiently transfected into the […] C2C12 (FIG. 3). The activity of the promoters was assessed using luciferase activity. The luciferase activity was measured with and without the presence of […] forskolin.

[3] = tested on: Huh7 human liver cell line; experiment: Luciferase expression from promoters in pAAV vector (with ITRs) in Huh7, forskolin or NKH477 induction; design: fold induction with forskolin: dose or concentration left out as unconfirmed
Procedure: The forskolin-inducible promoters RTV-017, RTV-019 and FORCYB1 were then used to drive expression of luciferase in a pAAV vector in the Huh7 human liver cell line. […] This experiment was performed to investigate the effect of the Inverted Terminal Repeats (ITRs) on the activity of the promoters.
The cells were seeded, transfected and induced as described above. Luciferase expression was measured as described above. In this experiment, the cells were induced by using 20 pM forskolin or 7.2 pM of the water soluble derivative NKH477.

| Molecule | effect of switch to hypoxia on luciferase activity [1] | luciferase activity without induction (background) ([2]; Huh7, before addition of forskolin) | luciferase activity following induction ([2]; Huh7, forskolin) | fold induction of promoter (luciferase activity) ([2]; Huh7 liver cells, PM-RQ plasmid, forskolin, 24 hrs after induction) | fold induction with forskolin ([3]; Huh7) | luciferase activity without induction (background) ([3]; Huh7) | fold induction with NKH477 ([3]; Huh7, 7.2 pM NKH477) | luciferase activity following induction ([3]; Huh7, or 7.2 pM NKH477) |
| --- | --- | --- | --- | --- | --- | --- | --- | --- |
| B1 | does not change | – | – | – | – | – | – | – |
| B2 | – | low background activity | high activity; also recorded: much higher activity | 13 fold | 44 fold | low background activity | 23 fold | high activity |

Reference: patent US20230167458A1, “FORSKOLIN-INDUCIBLE PROMOTERS AND HYPOXIA-INDUCIBLE PROMOTERS” (ASKLEPIOS BIOPHARMACEUTICAL, INC., priority 2020, published 2023)
